In patent US20230382979A1 (ADAPTIVE BIOTECHNOLOGIES, published 2023):

What was measured:
[1] = target: T1, Receptor-binding domain (RBD) of the SARS-CoV-2 spike protein, WA01/2020 strain (SARS-CoV-2, WA01/2020 strain, UniProt P0DTC2 319-541); test: dose-response ELISA on coated antigen
[2] = target: T2, SARS-CoV-2 spike protein on live virus, strain USA-WA1/2020 (SARS-CoV-2, WA01/2020 strain, UniProt P0DTC2 14-1273); test: cell-based or functional assay
[3] = target: SARS-CoV-2 spike protein on live virus, B1.351 (beta variant) (SARS-CoV-2, B1.351); test: cell-based or functional assay
[4] = target: T1, Receptor-binding domain (RBD) of the …; test: SPR (Biacore 8K), antigen immobilized, antibody injected
[5] = target: T1, Receptor-binding domain (RBD) of the …; test: ELISA, antibody blocks RBD binding to human ACE2
[6] = target: T2, SARS-CoV-2 spike protein on live virus, …; test: cell-based or functional assay; remark: listed apart in the source
[7] = target: SARS-CoV-2 spike protein, B1.351 (beta variant), borne on lentiviral pseudovirus (SARS-CoV-2, B1.351); test: cell-based or functional assay
[8] = target: SARS-CoV-2 spike protein, B1.1.7 (alpha variant), borne on lentiviral pseudovirus (SARS-CoV-2, B1.1.7); test: cell-based or functional assay
[9] = target: T1, Receptor-binding domain (RBD) of the …; test: ELISA, antibody at 0.1 ug/mL

| Binder | EC50 [1] [nM] | Live Neut, WA1/2020 IC50 (pM) [2] [pM] | Live Neut, B1.351 IC50 (pM) [3] [pM] | Kd [4] [nM] | IC50 [5] [nM] | IC50, live virus micro-neutralization WA1/2020 [6] [nM] | Pseudo Neut, B1.351 IC50 (pM) [7] [pM] | Pseudo Neut, B1.1.7 IC50 (pM) [8] [pM] | binding result [9] |
| --- | --- | --- | --- | --- | --- | --- | --- | --- | --- |
| antibody 980 (antibody, V domains shown) VH: QVQLVESGGGVVQPGRSLRLSCAASGFTFSRYGMHWVRQAPGKGLEWVALISSGGSNKYYADSVKGRFTISRDNSKNTLYLEMNSLRAEDTAVYYCAKDAIYDYIWGAYRENWFDPWGQGTLVTVSS VL: DIQMTQSPSSLSASVGDRVTITCRASQSISNYLNWYQQKPGKAPNLLIYAASSLQSGVPSRFSGSGSGTDFTLTISSLQPEDFATYYCQQTSSPPLTFGQGTKVEIK | 0.023 | 25 | 83 | 0.87 | 0.86 | 0.0082 | 1740 | 1670 |  |
| antibody 1238 (antibody, V domains shown) VH: QVQLVQSGSELKKPGASVKVSCKASGYTFTNYGMNWVRQAPGQGLEWMGWINTNTGNPTNAQGFTGRFVFSLDTSVSTAYLQINSLKGEDTAVYYCARVADTGEMDVWGQGTTVTVSS VL: SYELTQPPSVSVSPGQTARITCSGDALPKQYAYWYQQKPGQAPVLVIYKDSERPSGIPERFSGSSSGTTVTLTISGVQAEDEADYYCQSADSSGSYNWVFGGGTKLTIL |  | 400 |  |  |  |  |  |  | no binding (tested: 0.1 ug/mL) |
| antibody 2019 (antibody, V domains shown) VH: QVQLVESGGGVVQPGGSLSLSCAASGLSFSSYGMHWVRQAPGKGLEWVAFIRYDVSNKYYADSVKGRFTISRDNSKNTLYLQMNSLRVEDTAVYYCATWAPLDDGMDVWGQGTTVTVSS VL: SYELTQPPSVSVSPGQTARITCSGDALPKQYAYWYQQKPGQAPVLVIYKDTERPSGIPERFSGSSSGTTVTLTISGVQAEDEADYYCQSGDSSGTFYVVFGGGTKLTVL |  | 107 |  |  |  |  |  |  | no binding (tested: 0.1 ug/mL) |
| antibody 2892 (antibody, V domains shown) VH: QVQLVQSGAEVKKPGSSVKVSCKASGDAFISYAISWVRQAPGQGLEWMGGIIPIFGTANYAQKFQGRVTISADESTSTAYMELSRLRSEDTAVYYCARGGPEPYGSGSGYTPRYNWFDPWGQGTLVTVSS VL: QSALTQPRSVSGSPGQSVTISCTGTSSDVGGYNYVSWYQQHPGKAPKFMIYDVNRRPSGVPDRFSGSKSGNTASLTISGLQAEDEADYYCCSYAGTYTWVFGGGTKLTVL | 0.089 | 10 | 403 | 0.005 | 0.762 | 0.082 | 125 | ~13 |  |
| antibody 2788 (antibody, V domains shown) VH: QVQLVQSGAEVKKPGASVKVSCKVSGYTLIELSMHWVRQAPGKGLEWMGGFDPEGAETIYAQKFQGRVTMTEDTSTDTAYMELSSLRSDDTAVYYCATGPAVFAANWFDPWGQGTLVTVSS VL: QSALTQPPSASGSPGQSVTISCTGTSSDIGNYNNVSWYQQHPGKAPKLMIYDVIKRPSGVPDRFSGSKSGNTASLTVSGLQAEDEADYYCSSYAGKSYVFGTGTKVTVL |  | 117 |  |  |  |  |  |  | no binding (tested: 0.1 ug/mL) |
| antibody 3091 (antibody, V domains shown) VH: QMQLVQSGPEVKKPGTSVKVSCKASGFTFSSSAVQWVRQARGQGLEWIGWIVVGSGNANYAQKLQERVSITRDMSTSTAYMELSSLRPEDTAVYYCAAPHCSRTICHDGFDMWGQGTMVTVSS VL: EIVLTQSPGTLSLSPGERATLSCRASQSVRSSYLAWYQQKPGQAPRLLMFVASSRATGIPDRFSGSGSGTDFTLTISRLEPEDFAVYYCQQYDTSPWTFGQGTKVEIK | 0.03 | 8 | 172 | 0.004 | 0.56 | 0.055 | 78 | ~13 |  |
| antibody 3995 (antibody, V domains shown) VH: EVQLVQSGAEVKKPGSSVKVSCKASGGTFSMHTIRWVRQAPGQGLEWMGRIIPMLGIVNYAQKFQGRVTISADKSTSTAYMELSSLTSEDTAMYYCAKGSHDVFDIWGQGTMVTVSS VL: not shown | 0.021 | 51 | 135 | 0.057 | 0.692 | 0.041 | 2830 | 667 |  |
| antibody 2564 (antibody, V domains shown) VH: QVQLVQSGAEVKKPGSSVRVSCKASGGTFISYTFNWVRQAPGQGLEWMGRIIPIFGIVNYAQKFQGRVTIAADKSTSTAYMELSSLRSEDTAMYYCATATVDYDSGEEQSSFDPWGQGTLVTVSS VL: EIVLTQSPGTLSLSPGERATLSCRASQSVSSSYLAWYQQKAGQTPRLLIYAASSRATGVPDRFSGSGSGTDFTLTISRLEAEDFAVYYCQQSWTFGQGTKVEIK | 0.023 | 7 | 121 | 0.012 | 0.776 | 0.0226 | 196 | 33 |  |
| antibody 3086 (antibody, V domains shown) VH: QVQLQESGPGLVKPSETLSLTCTVSGGSISGHYWSWIRQPPGKGLEWIGYIYYSGSTNYNPSLKSRVTISVDTSVNQFSLKLSSVTAADTAVYYCARQEARDAVGNYFFDSWGQGTLVTVSS VL: QSALTQPASVSGSPGQSITISCSGTSSDIGSYDLVSWYQQHPGKAPKLLIYDVTKRPSGVSHRFSGSKSGNTASLTISGLQGEDEADYYCCSYVHFSTWVFGGGTKLTVL | 0.03 | 7 | 210 | 0.242 | 0.562 | 0.062 | 115 | 71 |  |
| antibody 2794 (antibody, V domains shown) VH: QVQLVQSGAEVKKPGSSLKVSCKASGGTFNNFAISWVRQAPGQGPEWMGRINPILSAAKYAQKFQGRLTITADKSTTTAYMELSSLRSEDTAVYYCAPTGTGESWWFDPWGQGTLVTVSS VL: QSVLTQPPSASGTPGQRVTISCSGSSSNIGTNYVYWYQQLPGTAPKVLIYGNNQRPSGVPDRFSGSKSGSSASLAISGLRSEDEADYYCAAWDDSLSGPVFGGGTKLTVL | 0.022 | 17 |  | 0.232 | 0.137 | 0.055 | 428 | 148 |  |
| antibody 2866 (antibody, V domains shown) VH: QVQLVQSGAEVKKPGSSVKVSCKASGGTFSSYSISWVRQAPGQGLEWMGGLAPIFHTPNYAQKFQGRVTITADESTSTAYMELSSLRSEDTAVYYCARVAGAGWGVYGAFDYWGQGTLVTVSS VL: not shown |  | 649 |  |  |  |  |  |  | no binding (tested: 0.1 ug/mL) |
| antibody 4042 (antibody, V domains shown) VH: QITLKESGPTLVKPTQTLTLTCTFSGFSLSSGGVGVGWIRQPPGKALEWLALIYWDDDKRYRPSLKSRLTITRDTSTNQVVLTMTNMDPVDTATYFCARHQIATVFDHWGQGTLVTVSS VL: QSALTQPASVSGSPGQSITISCTGTSSDVGGYNYVSWYQQHPGKAPKLMIYEVSNRPSGVSSRFSGSKSGNTASLTISGLQAEDEADYYCSSYTRSSPLVAFGGGTKVTVL | 0.021 | 15 | 140 | 0.036 | 1.09 | 0.039 | 948 | 200 |  |
| antibody 2793 (antibody, V domains shown) VH: QVQLVQSGAEVKKPGASVKVSCKVSGFTLPELSIHWVRQAPGKGLEWMGGFDPEDAKTIYAQKFQGRVTMTEDTSTDIAYMELNSLRSDDTAVYYCATGSPFGVVGNWLDPWGQGTLVTVSS VL: QSALTQPASVSGSPGQSITISCTGTSSDVGDFSYVSWYQQHPGKAPKLMIYEVTKRPSGVSNRFSGSKSGNTASLTISGLQTEDEADYYCTSYTSSRLVLFGGGTKLTVL |  | 77 |  |  |  |  |  |  | no binding (tested: 0.1 ug/mL) |
| antibody 2854 (antibody, V domains shown) VH: QVQLVQSGAEVKKPGSSVKVSCKASGGTFSSYAISWVRQAPGQGLEWMGGIIPIFHTANYAQKFQGRVTITADESTSTTYVELSSLRSEDTAMYYCATLPITIFGEEYSFDNWGQGTLVTVSS VL: DVVMTQSPLSLPVTLGQPASISCRSSQSLVHSDGNTYLSWFQQRPGQSPRRLIYKVSDRDSGVPDRFSGSGSGTDFTLKISRVEAEDVGIYYCMQGTHWPPLTFGGGTKVEIK |  | 164 |  |  |  |  |  |  | no binding (tested: 0.1 ug/mL) |
| antibody 2024 (antibody, V domains shown) VH: QVQLVQSGAEVKKPGASVKVSCKVSGYTLIELSMHWVRQAPGKGLEWMGGFDPEEGETIYAQKFQGRVTMTEDTSTDTAYMELSSLRSEDTAVYYCTTSPPVGATGAWFDPWGQGTLVTVSA VL: SYVLTQPPSVSVAPGKTARITCGGNNIGSKSVHWYQQKPGQAPVLVVYDDSDRPSGIPERFSGSNSGNTATLTISGLQAEDEADYYCSSYTSSSTVVFGGGTKLTVL |  | 95 |  |  |  |  |  |  | no binding (tested: 0.1 ug/mL) |
